Results from patent publication US20240294617A1 (Ablynx, published 2024).
Residue numbers refer to the chain shown, from its start.

Legend:
[1] = biological target: T1, rat serum albumin (Sigma-Aldrich A4538) (rat, UniProt P02770 25-608); assay: SPR (ProteOn XPR36), SA immobilised, pH 7.4
T1 construct: Bought protein; also called rat SA

[2] = biological target: T2, cynomolgus monkey serum albumin (generated in-house) (cynomolgus monkey, UniProt A2V9Z4 25-608, limits assumed); assay: SPR (ProteOn XPR36), SA immobilised, pH 7.4
T2 construct: also called cyno SA

[3] = biological target: T3, dog serum albumin (Abcam 119814) (dog, UniProt P49822 25-608); assay: SPR (ProteOn XPR36), SA immobilised, pH 7.4
T3 construct: Bought protein; also called dog SA

[4] = biological target: T4, pig serum albumin (Sigma-Aldrich A4414) (pig, UniProt P08835 25-607); assay: SPR (ProteOn XPR36), SA immobilised, pH 7.4
T4 construct: Bought protein; also called pig SA

[5] = biological target: T5, mouse serum albumin (Albumin Bioscience 2601) (mouse, UniProt P07724 25-608); assay: SPR (ProteOn XPR36), SA immobilised, pH 7.4
T5 construct: Bought protein; also called mouse SA

[6] = biological target: T6, guinea pig serum albumin (Gentaur GPSA62) (guinea pig); assay: SPR (ProteOn XPR36), SA immobilised, pH 7.4
T6 construct: also called guinea pig SA

[7] = biological target: T7, human serum albumin (Sigma-Aldrich A3782) (human, UniProt P02768 25-609); assay: SPR (ProteOn XPR36), SA immobilised, pH 7.4
T7 construct: Bought protein; also called HSA; human SA

[8] = biological target: T7, human serum albumin (Sigma-Aldrich …); assay: SPR (ProteOn), HSA immobilised, 500 nM injected, dissociation at pH 7.4
[9] = biological target: T7, human serum albumin (Sigma-Aldrich …); assay: SPR (ProteOn), HSA immobilised, 500 nM injected, dissociation at pH 6.0
[10] = biological target: T7, human serum albumin (Sigma-Aldrich …); assay: SPR (ProteOn), HSA immobilised, 500 nM injected, dissociation at pH 5.0
[11] = biological target: T7, human serum albumin (Sigma-Aldrich …); assay: competition ELISA on coated HSA

B1: serum albumin binder of SEQ ID NO:19 (invention) (VHH)
VHH: EVQLVESGGGVVQPGGSLRLSCAASGSTISSYVMGWFRRAPGKEREFVAAISRSGGYTYYADSVKGRFTISRDNSKKTAYLQMNSLRPEDTALYYCAAGRYSAWYSQSYEYDYWGQGTLVTVSS
notes: Monovalent Nanobody; also called T023500043
Question: Which results are given for B1?
Answer: Kd [1]: 0.012 nM; koff [1]: 1.5e-05 s⁻¹; kon [1]: 1.2e+06 M⁻¹ s⁻¹; Kd [2]: 0.016 nM; koff [2]: 1.4e-05 s⁻¹; kon [2]: 830000 M⁻¹ s⁻¹; Kd [3]: 2.8 nM; koff [3]: 0.0025 s⁻¹; kon [3]: 900000 M⁻¹ s⁻¹; Kd [4]: 290 nM; koff [4]: 0.036 s⁻¹; kon [4]: 120000 M⁻¹ s⁻¹; Kd [5]: 0.016 nM; koff [5]: 1.5e-05 s⁻¹; kon [5]: 940000 M⁻¹ s⁻¹; Kd [6]: 0.059 nM; koff [6]: 5.6e-05 s⁻¹; kon [6]: 940000 M⁻¹ s⁻¹; Kd [7]: 0.046 nM; koff [7]: 3.7e-05 s⁻¹; kon [7]: 790000 M⁻¹ s⁻¹; koff [8]: 6e-05 s⁻¹; koff [9]: 6.7e-05 s⁻¹; koff [10]: 7.5e-05 s⁻¹

B2: His6Flag3-SEQ ID NO:20 (VHH, not shown: small tags and cut ends)
VHH: B1 VHH with T28N
Question: Does B2 bind [11]?
Answer: Result: binds
